Square brackets hold non-standard residues; d marks the D form. Ends that are not written are not given here.

One assay deals with T1, mouse ADAMTS7 (Mus musculus, UniProt Q68SA9).
T1 construct: Full-length mouse Adamts7 1-1857 (Uniprot Q68SA9, WT or E373Q catalytic mutant); expressed in transfected cells; host or cells: Human Coronary Artery Smooth Muscle Cells (HCA-SMC, Lonza), adenovirus 50 MOI
T1 sequence (Q68SA9 221-1657): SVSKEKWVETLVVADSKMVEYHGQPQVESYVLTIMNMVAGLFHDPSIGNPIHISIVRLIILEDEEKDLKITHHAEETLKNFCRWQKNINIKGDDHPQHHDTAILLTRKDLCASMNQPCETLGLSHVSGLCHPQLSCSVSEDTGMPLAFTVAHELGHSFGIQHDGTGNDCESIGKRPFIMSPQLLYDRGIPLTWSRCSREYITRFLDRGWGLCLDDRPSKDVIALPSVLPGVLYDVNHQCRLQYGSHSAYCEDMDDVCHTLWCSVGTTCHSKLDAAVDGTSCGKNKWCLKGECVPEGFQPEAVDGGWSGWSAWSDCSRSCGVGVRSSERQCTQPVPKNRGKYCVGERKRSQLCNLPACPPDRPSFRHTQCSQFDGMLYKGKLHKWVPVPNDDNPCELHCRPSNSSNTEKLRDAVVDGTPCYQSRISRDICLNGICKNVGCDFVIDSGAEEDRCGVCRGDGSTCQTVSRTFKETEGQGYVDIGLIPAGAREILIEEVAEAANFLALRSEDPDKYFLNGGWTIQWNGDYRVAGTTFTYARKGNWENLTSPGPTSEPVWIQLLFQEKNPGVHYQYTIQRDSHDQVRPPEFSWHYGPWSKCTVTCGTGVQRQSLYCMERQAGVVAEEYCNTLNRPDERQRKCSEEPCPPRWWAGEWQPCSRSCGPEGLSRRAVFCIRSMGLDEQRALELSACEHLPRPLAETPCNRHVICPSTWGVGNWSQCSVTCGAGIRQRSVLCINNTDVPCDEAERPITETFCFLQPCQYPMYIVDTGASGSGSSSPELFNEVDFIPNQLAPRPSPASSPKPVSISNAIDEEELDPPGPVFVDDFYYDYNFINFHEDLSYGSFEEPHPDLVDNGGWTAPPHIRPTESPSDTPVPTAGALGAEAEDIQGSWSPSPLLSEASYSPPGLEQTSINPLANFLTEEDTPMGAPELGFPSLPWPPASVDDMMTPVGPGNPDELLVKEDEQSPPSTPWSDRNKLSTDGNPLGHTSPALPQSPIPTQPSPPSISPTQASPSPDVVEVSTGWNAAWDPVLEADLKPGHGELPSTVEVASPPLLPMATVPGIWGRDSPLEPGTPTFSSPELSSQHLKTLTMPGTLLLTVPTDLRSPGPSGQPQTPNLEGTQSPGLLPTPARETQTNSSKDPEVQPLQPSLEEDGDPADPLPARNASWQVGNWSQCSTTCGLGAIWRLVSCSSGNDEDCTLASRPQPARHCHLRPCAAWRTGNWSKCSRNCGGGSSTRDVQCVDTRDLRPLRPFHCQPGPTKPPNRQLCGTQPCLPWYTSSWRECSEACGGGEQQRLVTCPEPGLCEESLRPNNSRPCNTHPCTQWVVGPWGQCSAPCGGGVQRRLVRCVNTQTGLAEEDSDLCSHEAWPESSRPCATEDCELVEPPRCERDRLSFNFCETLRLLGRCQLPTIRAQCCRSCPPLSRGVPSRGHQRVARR
As to the kind of experiment: TMT10 TAILS N-terminomics, SMC2 experiment (process replicates, trypsin/AspN digest). It counts as cell-based. The note with it: SMC2_TAILS HC; log fold change, mWT over Luc. In short, it runs like this: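 Full-length mouse ADAMTS7 (WT or E373Q mutant, C-terminal 3xFLAG) or luciferase was transduced via adenovirus, 50 MOI, into HCA-SMC (SMC1, SMC2) or HUVEC. SMC1: pooled media, technical triplicates 400 ug; SMC2: process triplicates 300 ug; HUVEC: process triplicates 200 ug, bFGF2 10 ng/ml.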
Take “ACTG1_105 (LTEAPLNPKANR; listed as Homo sapiens)”: the logFC.mWT.over.Luc turned out to be 1.80. The substance “ACTN4_5 (HAANQSYQYGPSSAGNGAGGGGSMG; listed as Homo sapiens)” showed a logFC.mWT.over.Luc of 2.65. The substance “ADAM9_74 (GKEHIIHLER; listed as Homo sapiens)” had a logFC.mWT.over.Luc of 4.13.

With “ADAM10_86 (FKVETSNKVL; listed as Homo sapiens)”, the logFC.mWT.over.Luc is listed as 2.45. In turn, “ADNP2_375 (SQPVGPVNK; listed as Homo sapiens)” registered a logFC.mWT.over.Luc of 5.35. Take “AMER2_654 (LAGTTIRATACH; listed as Homo sapiens)”: the logFC.mWT.over.Luc came to 0.95.

In turn, “APLP2_452 (LVETHLAR; listed as Homo sapiens)” displayed a logFC.mWT.over.Luc of 2.70. The substance “APOA1_86 (EQLGPVTQEFW; listed as Homo sapiens)” showed a logFC.mWT.over.Luc of 1.80. In turn, “BMPER_43 (LTGSVAKCENEG; listed as Homo sapiens)” displayed a logFC.mWT.over.Luc of 2.37.

“CALU_176 (FTAFLHPEEY; listed as Homo sapiens)” gave a logFC.mWT.over.Luc of 2.37. “CAP1_300 (FSAPKPQTSPSPKR; listed as Homo sapiens)” returned a logFC.mWT.over.Luc of 2.91.

“CCL2_28 (INAPVTCCYNFTNR; listed as Homo sapiens)” had a logFC.mWT.over.Luc of 1.35. The substance “CEP192_728 (DKSTAGR; listed as Homo sapiens)” gave a logFC.mWT.over.Luc of 2.33. On the same count and under the same terms, the value for “CTSB_109 (WAFGAVEAIS; listed as Homo sapiens)” was 1.65; that for “DBN1_434 (APVEPATA; listed as Homo sapiens)” was 1.61. Take “DIS3L_75 (FPELKGIIFMQTACQAVQHQR; listed as Homo sapiens)”: the logFC.mWT.over.Luc came out at 1.77.

Take “ECM1_38 (FQEVGYAAPPSPPLSR; listed as Homo sapiens)”: the logFC.mWT.over.Luc was determined as 1.54. The same measure, in the same setting: the value for “ECM1_44 (AAPPSPPLSR; listed as Homo sapiens)” was 2.25.

Substance “ECM1_108 (QEAVPLQK; listed as Homo sapiens)” registered a logFC.mWT.over.Luc of 3.12.

The substance “EEF1G_23 (QYSGAQVR; listed as Homo sapiens)” yielded a logFC.mWT.over.Luc of 3.18.

“EIF4B_426 (QTGTSTTSSR; listed as Homo sapiens)” gave a logFC.mWT.over.Luc of 5.61. In turn, “EMSY_943 (QTVVQVLAVK; listed as Homo sapiens)” returned a logFC.mWT.over.Luc of 1.13. Take “FBLN2_665 (FSQVASNTIPLPLPQPNTCK; listed as Homo sapiens)”: the logFC.mWT.over.Luc was 1.74. Substance “FLNA_689 (VNKPAEFTV; listed as Homo sapiens)” gave a logFC.mWT.over.Luc of 4.67. Turning to “FLNC_2649 (FVGQKNSFTV; listed as Homo sapiens)”, the logFC.mWT.over.Luc was determined as 3.91. Substance “FN1_35 ([code q]MVQPQSPVAVSQSKPGCY; not fully specified (residue 2); listed as Homo sapiens)” had a logFC.mWT.over.Luc of 1.99. The same measure, in the same setting: the value for “FN1_99 (DKYTGNTYR; listed as Homo sapiens)” was 1.35; that for “FN1_607 (SSSGPVEVFIT; listed as Homo sapiens)” was 1.08; that for “FN1_1693 (LQPTVEYVVSVYAQNPSG; listed as Homo sapiens)” was 1.99. “FN1_1780 (LQGLRPGSEYTVSVVALH; listed as Homo sapiens)” gave a logFC.mWT.over.Luc of 1.67.

“FN1_1805 (LIGTQSTAIPAPT; listed as Homo sapiens)” registered a logFC.mWT.over.Luc of 2.43. On the same count and under the same terms, under “FN1_2113 (FVTHPGY; listed as Homo sapiens)” stands 1.38; under “FOXG1_235 (LNKCFVKVPRHY; listed as Homo sapiens)”, 3.42. In the case of “FSTL_1290 (LQKHQETA; listed as Homo sapiens)”, the logFC.mWT.over.Luc is 2.58. Substance “HEG1_51 (GLELQLER; listed as Homo sapiens)” registered a logFC.mWT.over.Luc of 0.90. Still for that read-out and setting: under “HEG1_224 (FQTKSGTAS; listed as Homo sapiens)” stands 3.54; under “KCND1_436 (RLAKSGTTNAFLQYKQNGGLE; listed as Homo sapiens)”, 1.60. Turning to “KRT28_2 (SLQFSNGSR; listed as Homo sapiens)”, the logFC.mWT.over.Luc was 1.88. Same read-out and setting: under “LASP1_182 (SYGGYKEPAAPVSIQR; listed as Homo sapiens)” stands 0.87; under “LOXL1_157 (SVSASAFASTYR; listed as Homo sapiens)”, 2.71; under “LOX_60 (LGSQYQPQR; listed as Homo sapiens)”, 1.25. As for “LOX_125 (FQAGYSTSR; listed as Homo sapiens)”, the logFC.mWT.over.Luc worked out at 3.45.

The assay is the same for the next values; noted with them: log fold change, ADAMTS7 WT over luciferase.
Consider “QSOX1_558 (VAAAPELAMGALELESR; listed as Homo sapiens)”, for which the logFC.mWT.over.Lux is recorded as 0.94. Take “SDC4_106 (LEENEVIPKR; listed as Homo sapiens)”: the logFC.mWT.over.Lux turned out to be 1.32. With “SERPINH1_27 (AAAPGTAEKLSPKAATLAER; listed as Homo sapiens)”, the logFC.mWT.over.Lux was 2.62. In turn, “SMOC1_35 (LISDRDPQCNLHCSR; listed as Homo sapiens)” registered a logFC.mWT.over.Lux of 1.75.

Regarding “SPOCK1_126 (HWVGPSNLVK; listed as Homo sapiens)”, the logFC.mWT.over.Lux was found to be 1.29.

Take “SRGN_50 (LEEKGPMFELLPGESNKIPR; listed as Homo sapiens)”: the logFC.mWT.over.Lux is given as 3.21. On the same count and under the same terms, the value for “SRGN_51 (EEKGPMFELLPGESNKIPR; listed as Homo sapiens)” was 1.66. As for “SRGN_60 (LPGESNKIPR; listed as Homo sapiens)”, the logFC.mWT.over.Lux is reported as 3.57. In turn, “SRGN_62 (GESNKIPR; listed as Homo sapiens)” yielded a logFC.mWT.over.Lux of 2.82. Regarding “STC1_37 (QNSAEVVR; listed as Homo sapiens)”, the logFC.mWT.over.Lux is 4.56. Same read-out and setting: under “STC2_239 (HGEAGHHLPEPSSR; listed as Homo sapiens)” stands 1.59; under “STC2_244 (HHLPEPSSR; listed as Homo sapiens)”, 1.09. As for “TGFBI_24 (GPAKSPYQLVLQHSR; listed as Homo sapiens)”, the logFC.mWT.over.Lux came out at 0.77. Consider “TGFBI_43 ([code q]HGPNVCAVQKVIGTNR; not fully specified; listed as Homo sapiens)”, for which the logFC.mWT.over.Lux is reported as 0.85. “TGFBI_50 (AVQKVIGTNR; listed as Homo sapiens)” gave a logFC.mWT.over.Lux of 0.96.

The substance “TGFBI_208 (GIVTVNCAR; listed as Homo sapiens)” returned a logFC.mWT.over.Lux of 0.89. For the substance “TGFBI_276 (TLLAPT[code n]EAFEKIPSETLNR; not fully specified; listed as Homo sapiens)”, the logFC.mWT.over.Lux stood at 0.75.

Take “TGFBI_497 (VLTPPMGTVMDVLKGDNR; not fully specified (residue 6); listed as Homo sapiens)”: the logFC.mWT.over.Lux is on record as 0.75. Turning to “TGFBI_524 (SAGLTETLNR; listed as Homo sapiens)”, the logFC.mWT.over.Lux turned out to be 0.84.

These data come from patent US20240368668A1, “SUBSTRATES AND BIOMARKERS OF ADAMTS7” (The Broad Institute, Inc., priority 2021, published 2024).
